Here are results for one protein from publication PMC10418658, “Biochemical and Structural Insights into a Thiamine Diphosphate-Dependent α-Ketoglutarate Decarboxylase from Cyanobacterium Microcystis aeruginosa NIES-843” (International Journal of Molecular Sciences, 2023).

Substrate in data set [1]: O=C(O)CCC(=O)C(=O)O
Briefly: purified protein. Type of data set: biochemical, Synechocystis sp. PCC 6803. Conditions: saturated ThDP and Mg2+; purified from coexpression with pTf16.

Substrate in data set [2]: Cc1ncc(C[n+]2csc(CCO[P@](=O)(O)OP(=O)(O)O)c2C)c(N)n1
Briefly: purified protein. The note with it: half-saturation of activity; purified from coexpression with pTf16; varied: cofactor.

B1: StKGD (Synechocystis sp. PCC 6803 substr. Kazusa) (protein)
chain: MGQMNTADLLVQCLENEDVEYIFGVPGEENLHILEALKNSPIRFITTRHEQGAAFMADVYGRLTGKAGVCLSTLGPGATNLMTGVADANLDGAPLVAITGQVGTDRMHIESHQYLDLVAMFDPVTKWTRQIVRPSITPEVVRKAFKLAQSEKPGATHIDLPENIAAMPVDGKPLRRDSREKVYAAFRTLGTAANAISKAKNPIILAGNGTIRAEASEALTEFATSLNIPVANTFMGKGTMPYTHPLSLWTVGLQQRDHITCAFEKSDLVIAVGYDLIEYSPKKWNPTGDLPIIHIGATPAEIDSSYIPQVEVVGDITDSLMDLLKRCDRQGKPTPYGASLRAEIRAEYECYANDTGFPVKPQKIIYDLRQVMGPDDVVISDVGAHKMWMARHYHCDSPNTCLISNGFAAMGIAIPGAIAAKLVYPERNIVAVTGDGGFMMNCQELETAMRVGTPFVTLIFNDNGYGLIEWKQINQFGESSFIKFGNPDFVKFAESMGLKGYRVEAAADLIPILKEALAQPVPTVIDCPVDYRENIRFSQKAGELACEIWE
notes: recombinant, coexpressed with chaperone plasmid pTf16 and purified again in this study
As for B1, in the data set “purified protein [1]”, the Km was 3.83 ± 0.75 mM, the kcat was 3.07 ± 0.42 s⁻¹ and the kcat/Km was determined as 800 M⁻¹ s⁻¹. The K0.5 in “purified protein [2]” was determined as 0.063 ± 0.019 mM.

As a reminder, the Km is the concentration of substrate that gives half-maximal velocity. Usually kcat stands for the maximal rate divided by the concentration of active sites. Broadly, the kcat/Km is the turnover number divided by the Michaelis constant.
